For this assay, the target named is receptor for activated C kinase (RACK1), endogenous, HT-1080 cells (human) (UniProt P63244). Put plainly: cell-based or functional assay.

This note sets out measurements from US20180353525A1.

Sequence of NHE6^527-588 peptide (pcDNA3-HA/NHE6^527-588) (Q92581 559-620): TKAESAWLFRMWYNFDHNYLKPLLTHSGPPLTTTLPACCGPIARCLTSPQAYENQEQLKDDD

As to “NHE6^527-588 peptide (pcDNA3-HA/NHE6^527-588)”, the Fold (doxorubicin IC50 at 1% O2 against 21% O2) worked out at 1.6 fold; the IC50 of doxorubicin, HT-1080 overexpressing the peptide, MTT viability, 1% O2 amounted to 0.224 µM; the IC50 of doxorubicin, HT-1080 overexpressing the peptide, MTT viability, 21% O2 turned out to be 0.137 µM; the increase in drug sensitivity to Dox in cells exposed to hypoxia came out at 2.8 fold.
